Patent publication US12187772 (Regeneron, dated 2025)
Read-outs that look alike come from different tables or passages of the source.

T1: IL10 receptor (IL10 receptor subunit alpha IL10Ra and beta subunit IL10Rb) on Ramos/STAT3-Luc and … (UniProt Q13651 22-578; Q08334 20-325, limits assumed)
T1 sequence (looked up) 1: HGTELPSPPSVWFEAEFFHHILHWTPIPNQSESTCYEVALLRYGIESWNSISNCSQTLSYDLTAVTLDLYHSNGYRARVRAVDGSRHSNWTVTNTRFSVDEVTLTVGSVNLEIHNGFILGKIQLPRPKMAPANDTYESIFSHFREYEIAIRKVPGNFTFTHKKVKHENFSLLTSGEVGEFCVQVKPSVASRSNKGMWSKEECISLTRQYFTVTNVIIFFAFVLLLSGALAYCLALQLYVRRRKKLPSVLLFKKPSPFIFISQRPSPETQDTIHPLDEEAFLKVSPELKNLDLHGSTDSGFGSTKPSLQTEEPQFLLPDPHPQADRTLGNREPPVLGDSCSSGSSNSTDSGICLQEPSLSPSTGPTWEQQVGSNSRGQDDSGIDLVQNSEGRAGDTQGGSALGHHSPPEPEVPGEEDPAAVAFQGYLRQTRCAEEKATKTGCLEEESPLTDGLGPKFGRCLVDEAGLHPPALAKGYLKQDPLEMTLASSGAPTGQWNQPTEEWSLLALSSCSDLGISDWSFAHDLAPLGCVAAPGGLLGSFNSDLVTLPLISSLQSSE
T1 sequence (looked up) 2: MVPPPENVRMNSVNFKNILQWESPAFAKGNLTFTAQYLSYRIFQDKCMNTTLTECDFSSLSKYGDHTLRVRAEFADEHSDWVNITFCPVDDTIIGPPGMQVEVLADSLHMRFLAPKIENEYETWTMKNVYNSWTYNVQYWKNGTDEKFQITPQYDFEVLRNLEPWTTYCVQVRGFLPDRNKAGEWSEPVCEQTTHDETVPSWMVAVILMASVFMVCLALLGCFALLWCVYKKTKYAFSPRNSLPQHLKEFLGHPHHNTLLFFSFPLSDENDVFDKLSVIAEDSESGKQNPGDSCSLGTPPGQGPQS

B1: IL10M3 (hIL10-1XG4S-Fc; Fc is murine IgG1) (Fc fusion)
chain: SPGQGTQSENSCTHFPGNLPNMLRDLRDAFSRVKTFFQMKDQLDNLLLKESLLEDFKGYLGCQALSEMIQFYLEEVMPQAENQDPDIKAHVNSLGENLKTLRLRLRRCHRFLPCENKSKAVEQVKNAFNKLQEKGIYKAMSEFDIFINYIEAYMTMKIRNGGGGSVPRDCGCKPCICTVPEVSSVFIFPPKPKDVLTITLTPKVTCVVVDISKDDPEVQFSWFVDDVEVHTAQTQPREEQFNSTFRSVSELPIMHQDWLNGKEFKCRVNSAAFPAPIEKTISKTKGRPKAPQVYTIPPPKEQMAKDKVSLTCMITDFFPEDITVEWQWNGQPAENYKNTQPIMDTDGSYFVYSKLNVQKSNWEAGNTFTCSVLHEGLHNHHTEKSLSHSPGK
B2: IL10M6 (hIL10-2XG4S-Fc; Fc is IgG4s) (Fc fusion)
chain: SPGQGTQSENSCTHFPGNLPNMLRDLRDAFSRVKTFFQMKDQLDNLLLKESLLEDFKGYLGCQALSEMIQFYLEEVMPQAENQDPDIKAHVNSLGENLKTLRLRLRRCHRFLPCENKSKAVEQVKNAFNKLQEKGIYKAMSEFDIFINYIEAYMTMKIRNGGGGSGGGGSESKYGPPCPPCPAPPVAGPSVFLFPPKPKDTLMISRTPEVTCVVVDVSQEDPEVQFNWYVDGVEVHNAKTKPREEQFNSTYRVVSVLTVLHQDWLNGKEYKCKVSNKGLPSSIEKTISKAKGQPREPQVYTLPPSQEEMTKNQVSLTCLVKGFYPSDIAVEWESNGQPENNYKTTPPVLDSDGSFFLYSRLTVDKSRWQEGNVFSCSVMHEALHNHYTQKSLSLSLGK
B3: IL10M2 (hIL10-3XG4S-Fc; Fc is IgG4s) (Fc fusion)
chain: SPGQGTQSENSCTHFPGNLPNMLRDLRDAFSRVKTFFQMKDQLDNLLLKESLLEDFKGYLGCQALSEMIQFYLEEVMPQAENQDPDIKAHVNSLGENLKTLRLRLRRCHRFLPCENKSKAVEQVKNAFNKLQEKGIYKAMSEFDIFINYIEAYMTMKIRNGGGGSGGGGSGGGGSESKYGPPCPPCPAPPVAGPSVFLFPPKPKDTLMISRTPEVTCVVVDVSQEDPEVQFNWYVDGVEVHNAKTKPREEQFNSTYRVVSVLTVLHQDWLNGKEYKCKVSNKGLPSSIEKTISKAKGQPREPQVYTLPPSQEEMTKNQVSLTCLVKGFYPSDIAVEWESNGQPENNYKTTPPVLDSDGSFFLYSRLTVDKSRWQEGNVFSCSVMHEALHNHYTQKSLSLSLGK
B4: IL10M7 (hIL10-1XG4S-Fc; Fc is IgG4s) (Fc fusion)
chain: SPGQGTQSENSCTHFPGNLPNMLRDLRDAFSRVKTFFQMKDQLDNLLLKESLLEDFKGYLGCQALSEMIQFYLEEVMPQAENQDPDIKAHVNSLGENLKTLRLRLRRCHRFLPCENKSKAVEQVKNAFNKLQEKGIYKAMSEFDIFINYIEAYMTMKIRNGGGGSESKYGPPCPPCPAPPVAGPSVFLFPPKPKDTLMISRTPEVTCVVVDVSQEDPEVQFNWYVDGVEVHNAKTKPREEQFNSTYRVVSVLTVLHQDWLNGKEYKCKVSNKGLPSSIEKTISKAKGQPREPQVYTLPPSQEEMTKNQVSLTCLVKGFYPSDIAVEWESNGQPENNYKTTPPVLDSDGSFFLYSRLTVDKSRWQEGNVFSCSVMHEALHNHYTQKSLSLSLGK
B5: IL10M8 (hIL10-Fc; Fc is IgG4s) (Fc fusion)
chain: SPGQGTQSENSCTHFPGNLPNMLRDLRDAFSRVKTFFQMKDQLDNLLLKESLLEDFKGYLGCQALSEMIQFYLEEVMPQAENQDPDIKAHVNSLGENLKTLRLRLRRCHRFLPCENKSKAVEQVKNAFNKLQEKGIYKAMSEFDIFINYIEAYMTMKIRNESKYGPPCPPCPAPPVAGPSVFLFPPKPKDTLMISRTPEVTCVVVDVSQEDPEVQFNWYVDGVEVHNAKTKPREEQFNSTYRVVSVLTVLHQDWLNGKEYKCKVSNKGLPSSIEKTISKAKGQPREPQVYTLPPSQEEMTKNQVSLTCLVKGFYPSDIAVEWESNGQPENNYKTTPPVLDSDGSFFLYSRLTVDKSRWQEGNVFSCSVMHEALHNHYTQKSLSLSLGK
B6: IL10M1 (Fc-3XG4S-hIL10; Fc is IgG4s) (Fc fusion)
chain: ESKYGPPCPPCPAPPVAGPSVFLFPPKPKDTLMISRTPEVTCVVVDVSQEDPEVQFNWYVDGVEVHNAKTKPREEQFNSTYRVVSVLTVLHQDWLNGKEYKCKVSNKGLPSSIEKTISKAKGQPREPQVYTLPPSQEEMTKNQVSLTCLVKGFYPSDIAVEWESNGQPENNYKTTPPVLDSDGSFFLYSRLTVDKSRWQEGNVFSCSVMHEALHNHYTQKSLSLSLGKGGGGSGGGGSGGGGSSPGQGTQSENSCTHFPGNLPNMLRDLRDAFSRVKTFFQMKDQLDNLLLKESLLEDFKGYLGCQALSEMIQFYLEEVMPQAENQDPDIKAHVNSLGENLKTLRLRLRRCHRFLPCENKSKAVEQVKNAFNKLQEKGIYKAMSEFDIFINYIEAYMTMKIRN
B7: mIgG1 (murine IgG1 Fc isotype control; control antibody with murine IgG1 sequence) (antibody, V domains shown)
VH: QVQLQESGPGLVAPSQSLSITCTVSGFSLTTFGVHWVRQSPGKGLEWLGVIWADETTNYNSALMSRLSISKDNSKSQVFLKMNGLRTDDTAIYSCARSKVSYYFDYWGRGTTLTVSS
VL: NIMMTQSPSSLPVSPGEKVTMNCKSSRSVLYSLNQKNYLAWYQQKPGQSPKLLIYWASTRESGVPDRFTGSGSGTDFSLTISSVQAEDLAVYYCHQYLSSWTFGGGTKLEIKR
B8: hIgG4s (human IgG4 Fc isotype control; Fc is IgG4s) (antibody, V domains shown)
VH: EVQLVESGGGLVQPGGSLRLSCAASGFTLSTYAMTWVRQAPGKGLEWVSAINYRAANTWYADSVKGRFTISRDNSKNTLYLQMNSLRDEDTAVYYCAQDRVIIKDYYVMDVWGQGTTVTVSS
VL: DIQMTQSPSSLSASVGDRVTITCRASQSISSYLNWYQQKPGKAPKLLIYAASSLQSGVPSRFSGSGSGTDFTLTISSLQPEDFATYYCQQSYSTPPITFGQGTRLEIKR
B9: hIgG1 (anti-FelD1 human IgG1 Fc isotype control) (antibody, V domains shown)
VH: QVQLQESGPGLVKPSETLSLTCTVSGGSISSYYWSWIRQPPGKGLEWIGYIYYSGRTNYNPSLKSRVTISVDTSKNQFSLKLSSVTAADTAIYYCARHRVTRTADSFDYWGQGTLVTVSS
VL: DIQMTQSPSSLSASVGDRVTITCQASQDINNYLNWYQQKTGKAPKFLIYDASNLETGVSSRFSGSGSGTDFTFTISSLQPEDVGTYYCHQYGDLPYTFGQGTKLEIKR
B10: Recombinant human IL10 (obtained from Peprotech, Princeton NJ, Product #200-10) (ligand)
chain: SPGQGTQSENSCTHFPGNLPNMLRDLRDAFSRVKTFFQMKDQLDNLLLKESLLEDFKGYLGCQALSEMIQFYLEEVMPQAENQDPDIKAHVNSLGENLKTLRLRLRRCHRFLPCENKSKAVEQVKNAFNKLQEKGIYKAMSEFDIFINYIEAYMTMKIRN

How the values were obtained:
Experiment in all cases: cell-based or functional assay
[1] = target: T1, IL10 receptor (IL10 receptor subunit …)
[2] = target: T1, IL10 receptor (IL10 receptor subunit …); remark: listed apart in the source
[3] = target: T1, IL10 receptor (IL10 receptor subunit …); remark: listed apart in the source

| Binder | EC50 [M] of luciferase activity, Ramos/STAT3-Luc reporter cells [1] [M] | EC50 [M] of luciferase activity, TF-1/STAT3-Luc reporter cells [1] [M] | Fold Induction of luciferase activity, Ramos/Stat3-Luc reporter cells [1] [fold] | Fold Induction of luciferase activity, TF-1/Stat3-Luc reporter cells [1] [fold] | EC50 of luciferase activity, Ramos/Stat3-Luc reporter cells [2] [pM] | EC50 of luciferase activity, TF-1/Stat3-Luc reporter cells [2] [pM] | Fold Induction of luciferase activity, Ramos/Stat3-Luc reporter cells [2] [fold] | Fold Induction of luciferase activity, TF-1/Stat3-Luc reporter cells [2] [fold] | Fold Induction of luciferase activity, Ramos/Stat3-Luc reporter cells [3] [fold] | Fold Induction of luciferase activity, TF-1/Stat3-Luc reporter cells [3] [fold] | other results |
| --- | --- | --- | --- | --- | --- | --- | --- | --- | --- | --- | --- |
| B1 | 2.19e-10 | 4.51e-10 | 3.2 | 3.4 |  |  |  |  |  |  |  |
| B2 |  |  |  |  | 127 | 362 | 3.02 | 2.66 |  |  |  |
| B3 | 2.13e-10 | 5.15e-10 | 3.6 | 4.1 |  |  |  |  |  |  | EC50 of luciferase activity, Ramos/Stat3-Luc reporter cells (IL10M2 L1) [3]: 254 pM; EC50 of luciferase activity, Ramos/Stat3-Luc reporter cells (IL10M2 L2) [3]: 192 pM; EC50 of luciferase activity, TF-1/Stat3-Luc reporter cells (IL10M2 L1) [3]: 507 pM; EC50 of luciferase activity, TF-1/Stat3-Luc reporter cells (IL10M2 L2) [3]: 450 pM; Fold Induction of luciferase activity, Ramos/Stat3-Luc reporter cells (IL10M2 L1) [3]: 3.42 fold; Fold Induction of luciferase activity, Ramos/Stat3-Luc reporter cells (IL10M2 L2) [3]: 3.06 fold; Fold Induction of luciferase activity, TF-1/Stat3-Luc reporter cells (IL10M2 L1) [3]: 2.85 fold; Fold Induction of luciferase activity, TF-1/Stat3-Luc reporter cells (IL10M2 L2) [3]: 2.68 fold |
| B4 |  |  |  |  | 172 | 319 | 2.88 | 2.36 |  |  |  |
| B5 |  |  |  |  | 268 | 484 | 3.2 | 2.34 |  |  |  |
| B6 | 1.19e-10 | 1.18e-10 | 3.7 | 4.8 |  |  |  |  |  |  | EC50 of luciferase activity, Ramos/Stat3-Luc reporter cells (IL10M1 L1) [3]: 117 pM; EC50 of luciferase activity, Ramos/Stat3-Luc reporter cells (IL10M1 L2) [3]: 148 pM; EC50 of luciferase activity, TF-1/Stat3-Luc reporter cells (IL10M1 L1) [3]: 139 pM; EC50 of luciferase activity, TF-1/Stat3-Luc reporter cells (IL10M1 L2) [3]: 134 pM; Fold Induction of luciferase activity, Ramos/Stat3-Luc reporter cells (IL10M1 L1) [3]: 4.11 fold; Fold Induction of luciferase activity, Ramos/Stat3-Luc reporter cells (IL10M1 L2) [3]: 3.66 fold; Fold Induction of luciferase activity, TF-1/Stat3-Luc reporter cells (IL10M1 L1) [3]: 4.12 fold; Fold Induction of luciferase activity, TF-1/Stat3-Luc reporter cells (IL10M1 L2) [3]: 3.4 fold |
| B7 |  |  | 1.1 | 1.1 |  |  |  |  |  |  |  |
| B8 |  |  | 1 | 1.4 |  |  |  |  | 1.01 | 0.99 |  |
| B9 |  |  |  |  |  |  |  |  | 1.1 | 1 |  |
| B10 | 5.07e-11 | 7.05e-11 | 4.5 | 5.9 |  |  |  |  | 5.16 | 4.02 | EC50 of luciferase activity, Ramos/Stat3-Luc reporter cells [3]: 48.2 pM; EC50 of luciferase activity, TF-1/Stat3-Luc reporter cells [3]: 63 pM |
